What was measured:
K-562 cells = assay: K-562 cytotoxicity assay (MTT); format: cell-based, human; settings: 72 h
Description: The K-562 cell line (CRL-243, ATCC) has attained widespread use as a highly sensitive in vitro target for cytotoxicity assays. K-562 blasts are multipotential, hematopoietic malignant cells that spontaneously differentiate into recognizable progenitors of the erythrocytic, granulocytic and monocytic series (Lozzio, B B et al., Proc. Soc. Exp. Biol. Med. 166: 546-550, 1981).
K562 cells were plated at 5,000 cells/well in 96-well tissue culture clusters (Costar) in DMEM phenol-free growth medium (Life Technologies) supplemented with pyruvate and 10% serum (HyClone). Next day, human recombinant IL-TIF (Example 19), BSA control or retinoic acid (known to be cytotoxic to K562 cells) were added. Seventy-two hours later, the vital stain MTT (Sigma, St Louis, Mo.), a widely used indicator of mitochondrial activity and cell growth, was added to the cells at a final concentration of 0.5 mg/ml. […] is converted to a purple formazan derivative by mitochondrial dehydrogenases. Four hours later, converted MMP was solubilized by adding an equal volume of acidic, isopropanol (0.04N HCl in absolute isopropanol) to the wells. Absorbance was measured at 570 nm, with background subtraction at 650 nm. In this experimental setting, absorbance reflects cell viability. Results shown in Table 12 are expressed as % cytotoxicity.

[1] = tested on: BaF3/CRF2-4/zcytor11 cells; assay: Alamar Blue proliferation assay, IL-TIF activity; format: cell-based, murine; settings: 3 days + Alamar Blue
Description: BaF3/CRF2-4/zcytor11 cells were spun down and washed in the complete media, described in Example 7A above, but without mIL-3 (hereinafter referred to as “mIL-3 free media”). The cells were spun and washed 3 times to ensure the removal of the mIL-3. Cells were then counted in a hemacytometer. Cells were plated in a 96-well format at 5000 cells per well in a volume of 100 μl per well using the mIL-3 free media.
Proliferation of the BaF3/CRF2-4/zcytor11 cells was assessed using IL-TIF-CEE protein diluted with mIL-3 free media to 50, 10, 2, 1, 0.5, 0.25, 0.13, 0.06 ng/ml concentrations. 100 μl of the diluted protein was added to the BaF3/CRF2-4/zcytor11 cells. The total assay volume is 200 μl. The assay plates were incubated at 37° C., 5% CO2 for 3 days at which time Alamar Blue (Accumed, Chicago, Ill.) was added at 20 μl/well. Plates were again incubated at 37° C., 5% CO2 for 24 hours. Alamar Blue gives a fluourometric readout based on number of live cells, and is thus a direct measurement of cell proliferation in comparison to a negative control. […] Plates were read on the Fmax™ plate reader (Molecular Devices Sunnyvale, Calif.) using the SoftMax™ Pro program, at wavelengths 544 (Excitation) and 590 (Emmission). […] The response, as measured, was approximately 15-fold over background at the high end of 50 ng/ml down to a 2-fold induction at the low end of 0.06 ng/ml.

MES 13 cells = assay: IL-TIF activation of SRE/STAT luciferase reporter mini-gene in MES 13 cells; format: cell-based, murine; settings: 4 h
Description: MES 13 cells (ATCC No. CRL-1927) were plated at 10,000 cells/well in 96-well tissue culture clusters (Costar) in DMEM growth medium (Life Technologies) supplemented with pyruvate and 10% serum (HyClone). Next day, the medium was switched to serum free DMEM medium by substituting 0.1% BSA (Fraction V; Sigma) for serum. This medium also contained the adenoviral construct KZ136 (below) that encodes a luciferase reporter mini-gene driven by SRE and STAT elements, at a 1000:1 multiplicity of infection (m.o.i.), i.e. 1000 adenoviral particles per cell. After allowing 24 h for the incorporation of the adenoviral construct in the cells, the media were changed and replaced with serum-free media. Human recombinant IL-TIF with or without a recombinant Zcytor16-Fc4 fusion was added at the indicated final concentration in the well (as described in Table 11, below). Dilutions of both the IL-TIF and Zcytor16-Fc4 were performed in serum-free medium. 0.1% BSA was added for a basal assay control. 4 h later, cells were lysed and luciferase activity, denoting activation of the reporter gene, was determined in the lysate using an Luciferase Assay System assay kit (Promega) and a Labsystems Luminoskan luminometer (Labsystems, Helsinki, Finland). Activity was expressed as luciferase units (LU) in the lysate.
The construction of the adenoviral KZ136 vector was as follows. The original KZ136 vector is disclosed in Poulsen, L K et al. J. Biol. Chem. 273:6228-6232, 1998. The CMV promoter/enhancer and SV40 pA sequences were removed from pACCMV.pLpA (T. C. Becker et al., […] 43:161-189, 1994.) and replaced with a linker containing Asp718/KpnI and HindIII sites (oligos ZC13252 (SEQ ID NO:26) and ZC13453 (SEQ ID NO:27)). The STAT/SRE driven luciferase reporter cassette was exised from vector KZ136 (Poulsen, L K et al., supra.).) as a Asp718/KpnI-HindIII fragment and inserted into the adapted pAC vector. Recombinant KZ136 Adenovirus was produced by transfection with JM17 Adenovirus into 293 cells as described in T. C. Becker et al. supra.). Plaque purified virus was amplified and used to infect cultured cells at 5-50 pfu/cell 12-48 hours before assay. Luciferase reporter assays were performed as described in 96 well microplates as per Poulsen, L K et al., supra.).

[2] = tested on: BaF3/mZcytor16-MPL receptor cell line; assay: Proliferation assay with BaF3/mZcytor16-MPL chimera cells; format: cell-based, murine; settings: in the presence of the correct receptor complex
Description: Using standard methods described herein, cells expressing a BaF3/mZcytor16-MPL chimera (wherein the extracellular domain of the mouse Zcytor16 (e.g., amino acids 24 to 230 of SEQ ID NO:38 or SEQ ID NO:48) is fused in frame to the intracellular signaling domain of the mpl receptor) are tested for proliferative response in the presence of IL-TIF. Such cells serve as a bioassay cell line to measure ligand binding of monomeric or homodimeric mouse Zcytor16 receptors. In addition, BaF3/mZcytor16-MPL chimera cells transfected with an additional heterodimeric cytokine receptor subunit can be assessed for proliferative response in the presence of IL-TIF. […] Transfection of the BaF3/MPL-mZcytor16 cell line with and additional MPL-class II cytokine receptor fusion that signals in the presence of the IL-TIF ligand, such as CRF2-4, determines which heterodimeric cytokine receptor subunits are required for mouse Zcytor16 receptor signaling. Use of MPL-receptor fusions for this purpose alleviates the requirement for the presence of an intracellular signaling domain for the mouse Zcytor16 receptor.
Each independent receptor complex cell line is then assayed in the presence of IL-TIF and proliferation measured using routine methods (e.g., Alamar Blue assay). […]

BaF3/CRF2-4 cells = assay: Alamar Blue proliferation assay, IL-TIF activity; format: cell-based, murine
BaF3 wild type cells = assay: Alamar Blue proliferation assay, IL-TIF activity; format: cell-based, murine

B1: IL-TIF: human IL-TIF polypeptide (SEQ ID NO:15) containing C-terminal GluGlu (EE) tag, purified from BHK cells (protein, listed as Homo sapiens)
chain: MAALQKSVSSFLMGTLATSCLLLLALLVQGGAAAPISSHCRLDKSNFQQPYITNRTFMLAKEASLADNNTDVRLIGEKLFHGVSMSERCYLMKQVLNFTLEEVLFPQSDRFQPYMQEVVPFLARLSNRLSTCHIEGDDLHIQRNVQKLKDTVKKLGESGEIKAIGELDLLFMSLRNACI
modifications: C-terminal EE tag
In the case of B1, the “% Cytotoxicity” value (K-562 cells; 100 ng/ml) is reported as 16.2%, the “% Cytotoxicity” value (K-562 cells; 300 ng/ml) is reported as 32% and the “proliferative response (induction)” value ([1]; IL-TIF-CEE 0.06 ng/ml) is reported as about 2 fold. For the same molecule, the “proliferative response over background” value ([1]; IL-TIF-CEE 50 ng/ml) was “approximately 15 fold”, the “LU w/o zcytoR16” value (MES 13 cells; IL-TIF 0.03 ng/ml) was 105 ± 3 LU and the “LU w/o zcytoR16” value (MES 13 cells; IL-TIF 0.3 ng/ml) was 108 ± 4 LU. The “LU w/o zcytoR16” value (MES 13 cells; IL-TIF 3 ng/ml) was 134 ± 8 LU, the “LU w/o zcytoR16” value (MES 13 cells; IL-TIF 30 ng/ml) was 188 ± 16 LU and the “LU w/o zcytoR16” value (MES 13 cells; IL-TIF 300 ng/ml) was 258 ± 21 LU. The “increase of proliferation over background” value [2] was at least 5 fold, the “proliferation in response to IL-TIF-CEE” value (BaF3/CRF2-4 cells) was “did not proliferate” and the “proliferation in response to IL-TIF-CEE” value (BaF3 wild type cells) was “did not proliferate”.
